Assay results from US20240307512A1.

Experiments:
[1] = target: SARS-COV-2 Spike Omicron BA.1 (on pVSV-Luc-SARS-COV-2-S pseudovirus) (SARS-COV-2) (UniProt P0DTC2)
[2] = target: SARS-COV-2 Spike Omicron BA.2 (on pVSV-Luc-SARS-COV-2-S pseudovirus) (SARS-COV-2) (UniProt P0DTC2)

ACE2 v2.4 (615)-Fc (IgG) (from UniProt Q9BYF1) (Fc fusion)
IC50 (read off the curve) [1]: 0.02 nM | IC50 (read off the curve) [2]: 0.04 nM
